Assay: yeast display, Sf9 membrane polyspecificity reagent, FACS + sequencing; frameworks hold sequencing errors
Summary of the method: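 Polyreactivity labels are assigned by the sorting gate from which each nanobody was recovered. The gates were low and high (top ~1%), set on anti-HA fluorescence for expression and streptavidin fluorescence for reagent binding. Before sorting, galactose-induced (36–48 hours) yeast display cells were stained for 1 hour at 4 °C with 10% biotinylated, detergent-solubilized Sf9 membrane reagent.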

| Sequence | polyreactivity (PSR sort gate) |
| --- | --- |
| QVQLVESGGGLVQAGGSLRLSFAASGRIFVRYSMGWYRQAPGKERELVAAISSSGSSTYYADSVKGRFTISRDNAQNTFYLKMNCLKPEDTAVYYCAAASVRYPRYEYWGQGTQVTVSS | high polyreactivity |
| QVQLVESGGGLVQAGGSLRLSCAASGLTFKFYDMGWYRQAPVKEREFVAGITSSGGTTYYADSVKGRFTISRDNAKNTVYLQMNSLKPEVTAVYYCAAADIDDGPFDSWGQGTQVNVSS | low polyreactivity |
| QVQLVESGGGLVQAGGSLRLSCAASGFTFPWYAMGWYRQAPGKERELVASISYRGDSTYYADSVKGRFTISRDNAKNTVYLQMNSLKPEDTAVYYCNTRLASYYLPGFDYWGQGTQVTVSS | low polyreactivity |
| QVQLVESGGGLVQAGGSLRLSCAASGSTFTGNAMGWYRQAPGKERELVAAITKGGSRTYYADSVKGRFTISRDNAKNTVYLQMNSLKPEDTAVYYCAATSRGTDYWGQGTQVTVSS | high polyreactivity |
| QVQLVESGGGLVQAGGSLRLSCAASGRIFRLYAMGWSRQAPGKERELVAAISSSGGDTYYADSVKGRFTISRDNAKNTVYLQMNSLKPEDTAVYYCNARKRYANVHYNYWGQGTQVTVSS | high polyreactivity |
| QVQLVESGGGLVQAGGSLRLSCAASGRTSVVNAMGWYRQAPGKERELVAAITSGGSTHYADSVKGRFTISRDNAKNTVYLPMNSLKPEDTAVYYCNARDRRRTNLLDYWGQGTQVTVSS | low polyreactivity |
| QVQLVESGGGLVQAGGSLRLSCAASGSTFAGNPMGWYRQATGKERELVAAIDSSTGSTYYADSVKGRFTISRDNAMNTVYLQMNSLKPEDTAVYYCNKTSFLVKLDYWGQGTQVTVSS | low polyreactivity |
| QVQLVESGGGLVQAGGSLRLICAASGRTFYPSVMGWYRQAPGKERELVARIRWSGSSTYYADSVKGRFTISRDNAKNTVYLQMNSLKPEDTAVYYCNARPSWYVLGSSVHSGMGYWGQGTQVTVSS | high polyreactivity |
| QVQLVESGGGLVQAGGSLRLRCAASGRILVRYAMGWYRQAPGKERELVAAISRGGSTTYADSVKGRFTISRDNAKNTVYLQMNSLKPEDTAVYYCAAGRYPYNRDYWGQGTQVTVSS | high polyreactivity |
| QVQLVESGGGIVQAGGTLRLSCAASGIIFGSYAMGWYRQEPGKERELVAAINSSGGSTHYADSVKGRFTISRDNSKNTVYLQMNSLKPEDTAVYYCAADGYWRDYSGYWDYYYIYDYCGQGTQVTVSS | low polyreactivity |
| QVQLVESGGGLVQAGGSLRLSCAASGSIFHIYAIGWYRQAPGKERELVAAISWRGDSTSYADSVKGRFTISRDNAKNTVYLQMNSLKPEDTAVYYCARGYGGYRGYYAKRFGYWGQGTQVTVSS | high polyreactivity |
| QDQLVDSGGGLVQAGGSLRLSCAASGRSFRNNPMGWYRQAPGKERELVAAITSSGASTYYADSVKGRFTISRDNAKNTVYLQMNSLKPEDTAVYSCAAATVRQFRSSLDYWGQGTQVTVSS | high polyreactivity |
| QVQLVESGRGLVQAGGTLRLSCAASGSTFNKYAMGWYRQAPGKERELVAAIRSNGVRTYYADSVKVRLTISRDNAKNTVYLQMNSLNPEDTAVYYCNKRYTYRYDYWGQGTQVTVSS | high polyreactivity |
| QVQLVESGGGLVQAGGSIRLSCAASGSIFWYNAMGWYRQAPGKERELVAGITSGGDTNYADSVKGRFTISRDNAKNTVYLQMNRLKPEDTAVYYCAKRWDGGRRYDYWGQGTQVTVSS | low polyreactivity |
| QVQLVESGGGLVQAGGSHRLSCAASGSIFYKNAMGWYRQAPGKERELVAAITKRGGTTYYADSVKGRFTISRDNAKNTVYLQMNSLKPEDTAVYYCAKYLGPASIVRYEYWGQGTQVTVSS | high polyreactivity |
| QVQLVESGGGLVQAGGSLRISCAASGYTFLAYAMGWYRQAPGKERELVAAISRSGVSTYYADSVKGRFTISRDNAKNTVYLQMYSLKTEYTAVYYFNARSGRQLARYGYWGHGTQVTVSS | high polyreactivity |
| QVQLVESGGGLVQAGGSLRLSCAASGSIFSWYAMGWYRQAHGKEREFVAGISSSGSTKYADSVKGRFTISRDNAKNTVYLQMNSLKPEDTAVYYCAVANKSQRYFYYYFHYYYWGQGTQVTVSS | low polyreactivity |
| QVQLVESGGRLVQAGASLRLSCDASGRIFQWYAIGWYRQAPGKVRELVAAITSGSSTYYADSVKGRFTISRDNAKNSVYLQMNSLKPEDTAVYYCAAEAVYVSSWYDDYYYFRYDYWGQGTQVTVSS | high polyreactivity |
| QVLLQESGGGLVQAGGSLRLSCAASGNIFSAGGMGWYRQAPVNERELVAGIGTGTSTNYADSVKGRFTISRDNANNTVYLQMNSLKPEDTAVYYCAAAYYSGLSHWYWGQGTQVTVSS | low polyreactivity |
| QVQLVESGGGLVQAGGSLRLSCAASGSILFGNAMGWYRQAPGKEMELVAAITVSGGSTYYADSVKGRFTISRDNAKNTVYLQMNSLKPEDTAVYYCAAVSLFRDSQFDYWGQGTQVTVSS | low polyreactivity |
| QVQLVESGGGLVQAGGSLRLSCAASGSTFGTYTMGWYRPAPGKERELVAAISNRGGTYYADSVKGRFTISRDNAKNTVYLQMNSMKPEDTAVYYCAVARRWGYDYWGQGTQVTVSS | high polyreactivity |
| QVQLVESGGGLVQAGGSLRLSCAASGSTVFGNAMGWYRQAPGKERELVAAITSGGSTNYADSVKGRFTISRDNAKNTVYLQMNSLKPEDTAVYYCAKPSRWGWTGFYAYDYWGQGTQVTVSS | low polyreactivity |

| Sequence | polyreactivity (PSR sort gate) |
| --- | --- |
| QVQLVESAGGLVQAGGSLRLSCAASGSTFYRYAMGWYRQAPGKERELVAAISTRGGSTYYADSVKGRFTISRDNAKNTVYLQMNSLKPEDTAVYYCAAKSGSPDDYDYWGQGTQVTVSS | high polyreactivity |
| QVQLVESGGGLVQAGGSLRLSCAASGSTLKSNVMGWYRQAPGKERELVAAISSSGGSTSYADSVKGRFTISRDNAKNTVYLLMKSLNPEDTAVYYCAARMGRYFWNSGVDYWGQGTQVTVSS | high polyreactivity |
| QVQLVESGGGLVQAGGSLRLSCAASGSTFVYYAMGWYRQAPGKERELVAASTYADSVKGRFTISRDNAKNTVYLQMNSLKPEDTAVYYCAADFVSAYFTIYDYWGQGTQVTVSS | low polyreactivity |
| QVQLVESGGGLVQAGGSLRLSCAASGGTFATYAMGWYRQAPGKERELVAAISWSGGSTYYAVSVKGRFTISRDNAKNTVYLQMNSLKPEDTAVYYCAAASRAPSGLYYYWGQGTQVTVSS | high polyreactivity |
| QVQLQESGGGLVQAGGSLRLSCAASGNISSYYRMGWYRQAPGKEREFVATIAVGGTTNYADSVKGRFTISRDNAINTVFLQRNSLNTEDTAVCFCAANSTQYTWFDYWGQGTQVPVSS | low polyreactivity |
| QVQLVESGGGLVQAGGSLRLSCAASGRIFARNAMGWYRQAPGKEREFVAAITHSGGNTYYADSVKGRFTISRDNAKNTVYLQMNSLKPEATAVYYCAKDYRSTKYDYWGQGTQVTVSS | low polyreactivity |
| QVQLVESGGGLVQAGGSLRLSCAASGFTFRANGMGWYRQAPGKERELVATITSGGTTNYADSVKGRFTISRDNAKNTVYLQMNSLKPEDTAVYYCAKRFGPAYFRLYDYWGQGTQVTVSS | low polyreactivity |
| QVQLVESGGGLVQAGGSLRLSCSASGLTFGNNAMGWYRQAPGKETELVAAISSDGTTYYADSVKGRFTISRDHAKNTVYLQMNSLKPEDSAVYYCAALYGPGREYDYWGQGTQVTVSS | low polyreactivity |
| QVQLVESGAGLVQAGGRLRLSCAASGIIFRPYAMGWYRQAPGKERELVAAITGSGVSTYYADSVKGRFTISRDNAKITVYLQMNSLKPEDTAVYYCAKRYNRCDHRYDYWGQGTQVTVSS | low polyreactivity |
| QVQLVETGGGLVQAGGSLRLSCAASGRIFSNYVMGLYRQAPVKERELVAAISGSGGRTYYADSVKGRFTISRDNAKNTVYVQMNSRTPEDTAVYYCAARRSERDRYGGYYYWGQGTQVTVSS | high polyreactivity |
| QVQLVESGGGLVQAGGSLRLSCAASGFTFNRYAMGWYRQAPGKERELVAAISWSGTSTYYADSVKGRFTISRDNAKNTVYLQMNSLKQEDTAVYYCAARVKGQWNTYDYWGQGTQVTVTS | high polyreactivity |
| QVQLVESGGGLVQAGGSLRLSCAASGSIFANYAMGWYRQAPGKERELVAAISKRGGSTNYADSVKGRFTISRDNAKNTVYLQMISLKPEDTAVYYCNVKPGSRRVLAAAYGYWGQGTKVTVSS | low polyreactivity |
| QVQLVESGGGLVQAGGSLRLSCAASGSTFYENTMGWYRQAPGKERELVAAISVRGGSTYYADSVKGRFTISRDNEKKTVYLQMNRLKPEDTAVYYCAVLDVYRYRMDYSGQGTQVTVSS | low polyreactivity |
| QVQLVESRGGLVQAGGSLRLSCAASGSTFYLNVMGWYIQAPGKERELVAAITYRGGRTSYADSVKGRFTISRDNAKNTVYLQMISLKPEDTAVYYCATPKYYGYYYWGHGTQVTVSS | high polyreactivity |
| QVQLVESGGGLVQAGGSLRLICAASGITYDQNAMGWYRQAPGKDRDLVAAITRGSSTNYADSVKGRVTISRDNAKNTVYLKMNSVKPEDTAVYYCAAAVLGSSKSEVDPDRPEYYYWGQGTQVTVSS | low polyreactivity |
| QVQLVESGGGLVQAGGSLRLSCAASGSIFPINAMGWYRQAPGKERELVAVITSGGGGTYYADSVKGRFTISRDNAKNTVYLQMNSLKPEDSAVYYCAKRLSRKWQKFGYWGQGSQVTVSS | low polyreactivity |
| QVQLVESGGGLVQAGGSLRLSCAASGSISATYAKGWYRQAPGKERELVAAISRNGGSTYYADSVKGRFTISRDNAKNTVYLQMNSLKPEDTAVYYCATSSSKSMYWGQGTQVTVSS | high polyreactivity |
| QVQLQESRGGLVQVGGSQRLSCAASGNIFYNYAMGWYRHANGKEREFDATINHGTSINYADSVKGRFTISRDNAKNTLYLQMNSLKPEDTAVSYCAADLSWTDNLFYWGQGTQVTVTS | low polyreactivity |
| QVQLVESGGGLVQAGGSLRLSCAASGRILEGYAMGWYRQAPGKERELVAAISFSTTTTYYADSVKGRFTISRDNAKNTVYLQMNSLKPEDTAVYYCAADSQQSDYDYWGQGTQVTVSS | high polyreactivity |
| QVQLVESGGGLVQAGGSLRLICAASGFIFGLNAIGWYRQAPGKERELVAAIRSASSTNYADSVKGRFTISRDNAKNTVYLQMNSLKPEDTAVYYCAAEDFTRQFEYWGQGTQVTVSS | low polyreactivity |
| QVQLVESGGGLVQAGGSLRLSCAASGFIFFRYDMGWYRQAPGKERELVAVITSSGSTNYADSVKGRFTISRDNAKNTVYLQMNSLKPEDTAVYYCNARVSGVYRRRVNYWGEGTQVTVSS | high polyreactivity |

Source: the nanobody polyreactivity screen of Harvey et al. (2022)
